Laboratory results published in PMC8439105 (Current biology : CB, 2021).
Blank lines part the entries; values can stand above or below the binder they belong to.

Key:
His-tagged LC3B-T50E = His-tagged LC3B-T50E (human, UniProt Q9GZQ8 1-120, T50E); experiment: BLI
His-tagged LC3B-WT = His-tagged LC3B-WT (human, UniProt Q9GZQ8 1-120); experiment: BLI
His-tagged LC3B-T50A = His-tagged LC3B-T50A (human, UniProt Q9GZQ8 1-120, T50A); experiment: BLI
[1] = target: HA-tagged LC3B-T50E (phospho-mimetic mutant) (UniProt Q9GZQ8 1-120, T50E); experiment: affinity purification with mass spectrometry
[2] = target: HA-tagged LC3B-T50A (phospho-deficient mutant) (UniProt Q9GZQ8 1-120, T50A); experiment: affinity purification with mass spectrometry

Kd (His-tagged LC3B-T50E): ~28 µM
Kd (His-tagged LC3B-WT): ~4.1 µM
Kd (His-tagged LC3B-T50A): ~6 µM
Binder: GQGANTDYRPPDDAVFDIITDEELCQIQESGSSL [FYCO1 peptide (1265–1298 amino acids of the human protein)]

fold change of binding against HA-LC3B-WT [1]: ~5 fold lower
fold change of binding against HA-LC3B-WT [2]: ~2 fold higher
B1: FYCO1 (endogenous, human cells) (natural protein)
chain: MASTNAESQLQRIIRDLQDAVTELSKEFQEAGEPITDDSTSLHKFSYKLEYLLQFDQKEKATLLGNKKDYWDYFCACLAKVKGANDGIRFVKSISELRTSLGKGRAFIRYSLVHQRLADTLQQCFMNTKVTSDWYYARSPFLQPKLSSDIVGQLYELTEVQFDLASRGFDLDAAWPTFARRTLTTGSSAYLWKPPSRSSSMSSLVSSYLQTQEMVSNFDLNSPLNNEALEGFDEMRLELDQLEVREKQLRERMQQLDRENQELRAAVSQQGEQLQTERERGRTAAEDNVRLTCLVAELQKQWEVTQATQNTVKELQTCLQGLELGAAEKEEDYHTALRRLESMLQPLAQELEATRDSLDKKNQHLASFPGWLAMAQQKADTASDTKGRQEPIPSDAAQEMQELGEKLQALERERTKVEEVNRQQSAQLEQLVKELQLKEDARASLERLVKEMAPLQEELSGKGQEADQLWRRLQELLAHTSSWEEELAELRREKKQQQEEKELLEQEVRSLTRQLQFLETQLAQVSQHVSDLEEQKKQLIQDKDHLSQQVGMLERLAGPPGPELPVAGEKNEALVPVNSSLQEAWGKPEEEQRGLQEAQLDDTKVQEGSQEEELRQANRELEKELQNVVGRNQLLEGKLQALQADYQALQQRESAIQGSLASLEAEQASIRHLGDQMEASLLAVRKAKEAMKAQMAEKEAILQSKEGECQQLREEVEQCQQLAEARHRELRALESQCQQQTQLIEVLTAEKGQQGVGPPTDNEARELAAQLALSQAQLEVHQGEVQRLQAQVVDLQAKMRAALDDQDKVQSQLSMAEAVLREHKTLVQQLKEQNEALNRAHVQELLQCSEREGALQEERADEAQQREEELRALQEELSQAKCSSEEAQLEHAELQEQLHRANTDTAELGIQVCALTVEKERVEEALACAVQELQDAKEAASREREGLERQVAGLQQEKESLQEKLKAAKAAAGSLPGLQAQLAQAEQRAQSLQEAAHQELNTLKFQLSAEIMDYQSRLKNAGEECKSLRGQLEEQGRQLQAAEEAVEKLKATQADMGEKLSCTSNHLAECQAAMLRKDKEGAALREDLERTQKELEKATTKIQEYYNKLCQEVTNRERNDQKMLADLDDLNRTKKYLEERLIELLRDKDALWQKSDALEFQQKLSAEERWLGDTEANHCLDCKREFSWMVRRHHCRICGRIFCYYCCNNYVLSKHGGKKERCCRACFQKLSEGPGSPDSSGSGTSQGEPSPALSPASPGPQATGGQGANTDYRPPDDAVFDIITDEELCQIQESGSSLPETPTETDSLDPNAAEQDTTSTSLTPEDTEDMPVGQDSEICLLKSGELMIKVPLTVDEIASFGEGSRELFVRSSTYSLIPITVAEAGLTISWVFSSDPKSISFSVVFQEAEDTPLDQCKVLIPTTRCNSHKENIQGQLKVRTPGIYMLIFDNTFSRFVSKKVFYHLTVDRPVIYDGSDFL
